In US20220396619A1 (Eli Lilly, published 2022):

Legend:
[1] = target: T1, soluble human CD200R long isoform extracellular domain (ECD)-His polypeptide (human, UniProt Q8TD46 29-265); test: SPR (Biacore T200), antibody captured on Protein A, receptor ECD-His as analyte, 37 C, n = 3
T1 construct: Bought from R&D Systems, Cat. No. 10053-CD-050; also called Human CD200R long isoform ECD-His; human CD200R-ECD long isoform-His
T1 sequence: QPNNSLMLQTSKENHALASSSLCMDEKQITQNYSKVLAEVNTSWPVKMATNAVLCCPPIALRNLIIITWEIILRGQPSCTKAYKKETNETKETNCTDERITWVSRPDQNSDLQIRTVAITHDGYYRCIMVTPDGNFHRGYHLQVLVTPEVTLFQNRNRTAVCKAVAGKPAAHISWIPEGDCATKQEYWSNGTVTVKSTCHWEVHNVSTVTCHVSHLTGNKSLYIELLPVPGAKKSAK
From the text: (§1) A BIACORE™ T200 (GE Healthcare, Piscataway, N.J.) is used to measure the binding kinetics and affinities of Antibody A to soluble human CD200R long isoform extracellular domain (ECD)-His polypeptide (SEQ ID NO: 17) (R&D Systems Cat. No. 10053-CD-050) and soluble cynomolgus monkey CD200R long isoform ECD-His polypeptide (SEQ ID NO: 19). Cynomolgus monkey CD200R ECD long isoform-His is expressed in HEK293 or CHO cells and purified using Ni SEPHAROSE™ excel column (GE Healthcare Life Sciences) and size exclusion chromatography.
(§2) A Series S CM4 chip (GE Healthcare Ca. No. BR-1005-34) is prepared using the manufacturer's EDC/NHS amine coupling method (GE Healthcare Cat. No. BR-1000-50). Briefly, the surfaces of all 4 flow cells are activated by injecting a 1:1 mixture of EDC/NHS for 7 minutes at 10 μL/minute. Protein A (Calbiochem Cat. No. 539202) is diluted to 100 μg/mL in 10 mM acetate pH 4.5 buffer and immobilized for approximately 400 RU onto all 4 flow cells by 7 minute injection at a flow rate of 10 μL/minute. Un-reacted sites are blocked with a 7 minute injection of ethanolamine at 10 μL/minute. Injections of 2×10 μL of glycine pH 1.5 are used to remove any non-covalently associated protein. Running buffer is 1× HBS-EP+ (10 mM HEPES, 150 mM NaCl, 0.05% Tween-20, pH 7.6, Teknova Cat. No. H8022).
(§3) Binding is evaluated using multi-cycle kinetics by an antibody capture method. Samples are diluted in 1× HBS-EP+ running buffer with 0.25% IgG free BSA (Jackson Immuno Research Cat. No. 001-000-161). Each cycle is performed at 37° C. at a flow rate of 20 μL/min for antibody capture to the Protein A chip and 30 μL/min for analyte association and dissociation.

[2] = target: T2, soluble cynomolgus monkey CD200R long isoform ECD-His polypeptide (cynomolgus monkey); test: as above
T2 construct: Expressed in HEK293 or CHO cells; also called cynoCD200R long isoform ECD-His; cynoCD200R-ECD long isoform-His
T2 chain: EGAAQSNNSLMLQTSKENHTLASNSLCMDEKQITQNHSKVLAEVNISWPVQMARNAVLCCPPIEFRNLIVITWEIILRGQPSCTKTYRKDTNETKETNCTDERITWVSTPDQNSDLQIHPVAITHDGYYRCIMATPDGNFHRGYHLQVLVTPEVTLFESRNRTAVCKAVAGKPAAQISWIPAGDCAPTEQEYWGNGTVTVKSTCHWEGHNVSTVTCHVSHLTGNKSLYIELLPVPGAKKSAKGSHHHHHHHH
From the text: as §1, §2, §3

[3] = target: T3, Cynomolgus monkey CD200R long isoform (cynomolgus monkey); test: flow cytometry on CHO cells expressing the receptor; midpoint of titration, one-site saturation fit
T3 construct: Stably expressed on CHO cells; also called cynomolgus monkey CD200R long isoform on CHO cells
T3 chain: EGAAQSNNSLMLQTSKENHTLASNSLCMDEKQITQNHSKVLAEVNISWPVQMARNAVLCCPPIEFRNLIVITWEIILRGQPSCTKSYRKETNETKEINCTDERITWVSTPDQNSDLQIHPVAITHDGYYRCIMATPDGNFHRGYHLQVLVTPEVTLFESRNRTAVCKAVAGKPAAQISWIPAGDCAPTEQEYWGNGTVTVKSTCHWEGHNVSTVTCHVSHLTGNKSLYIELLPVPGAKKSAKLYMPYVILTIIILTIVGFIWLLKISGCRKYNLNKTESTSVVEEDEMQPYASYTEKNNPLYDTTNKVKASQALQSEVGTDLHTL
Description: (§4) To perform flow cytometry, CD200R-expressing CHO cells are counted using a Vicell counter and pelleted by centrifugation at 1200 RPM, aspirated and resuspended in phosphate buffered saline (PBS). Cells are counted again and after another centrifugation are adjusted to 10⁶ cells/mL in flow cytometry wash buffer (PBS w/10% NGS & 2% FBS & 0.05% NaN₃) with Fc block (BD Biosciences). Cells are blocked on ice for 15 minutes. Next the tubes are centrifuged, aspirated, and washed once with cold wash buffer. After the wash, the cells are adjusted to 10⁶ cells/mL in wash buffer and plated at […] (50 μL) in a 96-well tissue culture plate (Corning 3799). Antibody A is titrated (1:3 dilutions) on the 96-well polystyrene plates (Corning 3879) starting at 30 μg/mL (final concentration) in cold wash buffer. Next, Antibody A is transferred at 50 μL/well into the Corning 3799 plate containing cells. The plates are incubated on ice for 45 minutes then washed twice with 150 μL cold wash buffer. Next, 100 μL secondary Goat anti-human IgG Fc-PE (Jackson Cat. No. 109-116-098 or Jackson Cat. No. 109-116-088) is added at a 1:500 or 1:400 dilution in wash buffer and incubated for 45 minutes on ice. Plates are washed twice and 200 μL propidium iodide (1:1000 dilution in wash buffer; Molecular Probes Cat. No. P3566) is added as the cell viability stain. The plates are covered with foil on ice. Flow cytometry is then performed using a Fortessa instrument acquiring with FACS Diva software (both from Becton Dickinson) and analyzing with FlowJo (version 10.5.3).
(§5) Antibody A is tested for its binding to recombinantly expressed isoforms of both human and cynomolgus monkey CD200R and the related activating cynomolgus monkey CD200RLa protein on Chinese Hamster Ovary (CHO) cell line surfaces using flow cytometry. The antibody is titrated onto CHO cells expressing the polypeptide of interest. The flow cytometry binding curves are fit using the one-site saturation binding model in GraphPad Prism.

[4] = target: T4, Cynomolgus monkey CD200RLa (cynomolgus monkey); test: as above
T4 construct: also called cynoCD200RLa
T4 chain: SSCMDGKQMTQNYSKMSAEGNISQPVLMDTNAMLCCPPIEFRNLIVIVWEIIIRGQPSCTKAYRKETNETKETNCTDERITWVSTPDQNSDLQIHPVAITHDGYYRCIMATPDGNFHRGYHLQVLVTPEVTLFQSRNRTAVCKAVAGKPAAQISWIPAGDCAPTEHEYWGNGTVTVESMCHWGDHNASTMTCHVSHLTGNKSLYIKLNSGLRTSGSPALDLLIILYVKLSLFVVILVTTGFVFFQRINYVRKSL
Description: as §4, §5

[5] = target: T5, Human CD200R long isoform (human, UniProt Q8TD46 25-348); test: as above
T5 construct: Stably expressed on CHO cells; also called human CD200R long isoform on CHO cells
T5 chain: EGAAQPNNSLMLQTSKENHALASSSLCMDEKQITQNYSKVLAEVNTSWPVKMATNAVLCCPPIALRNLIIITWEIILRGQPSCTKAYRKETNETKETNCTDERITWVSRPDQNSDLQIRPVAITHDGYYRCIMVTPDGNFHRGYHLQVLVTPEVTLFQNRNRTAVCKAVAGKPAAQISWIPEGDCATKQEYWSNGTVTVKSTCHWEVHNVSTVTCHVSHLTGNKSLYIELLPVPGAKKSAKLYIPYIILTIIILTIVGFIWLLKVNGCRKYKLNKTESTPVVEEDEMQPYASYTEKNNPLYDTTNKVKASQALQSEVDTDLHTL
Description: as §4, §5

[6] = target: T6, Human CD200R short isoform (human, UniProt Q8TD46 46-348); test: as above
T6 construct: Stably expressed on CHO cells; also called human CD200R short isoform on CHO cells
T6 sequence: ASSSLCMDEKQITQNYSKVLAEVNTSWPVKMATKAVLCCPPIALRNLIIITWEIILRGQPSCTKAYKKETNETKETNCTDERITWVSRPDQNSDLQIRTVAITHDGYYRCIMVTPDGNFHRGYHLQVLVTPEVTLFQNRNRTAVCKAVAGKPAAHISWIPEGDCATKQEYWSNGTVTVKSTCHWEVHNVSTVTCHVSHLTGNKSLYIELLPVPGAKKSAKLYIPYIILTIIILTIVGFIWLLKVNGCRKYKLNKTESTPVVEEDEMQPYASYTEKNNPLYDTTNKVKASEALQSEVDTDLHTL
Description: as §4, §5

B1: Antibody A (antibody, human IgG4 S228P, kappa, F234A L235A, V domains shown)
VH: QVQLVESGGGVVQPGRSLRLSCAASGFTFSRYGMHWVRQAPGKGLEWVAVIPYDGSNKYYADSVKGRFTISRDISKNTLYLQMNSLRAEDTAVYYCARRGYYDSSGYYYFYYGMDVWGQGTTVTVSS
VL: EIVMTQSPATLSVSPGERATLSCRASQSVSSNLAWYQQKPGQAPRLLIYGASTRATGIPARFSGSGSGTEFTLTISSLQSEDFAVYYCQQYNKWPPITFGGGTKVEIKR
notes: The control used beside it is IgG4-PAA; also called Anti-human CD200R (Antibody A)
Which Kd [1] does the source give for B1 here?
The Kd was 34.8 nM.

What about the Stoichiometry [1] of the same binder?
Its Stoichiometry is 1.9.

What about the koff [1] of the same binder?
The koff was 0.00016 s⁻¹.

What about the kon [1] of the same binder?
The kon was 4700 M⁻¹ s⁻¹.

And the Kd [2]?
The Kd was 93.2 nM.

What about the Stoichiometry [2] of the same binder?
The Stoichiometry was 2.6.

What about the koff [2] of the same binder?
Its koff is 0.00056 s⁻¹.

What about the kon [2] of the same binder?
Its kon is 6200 M⁻¹ s⁻¹.

What about the EC50 [3] of the same binder?
The EC50 was 2.3 µg/mL.

What about the EC50 [4] of the same binder?
The EC50 was 3.7 µg/mL.

What about the EC50 [5] of the same binder?
The EC50 was 3.2 µg/mL.

And the EC50 [6]?
Its EC50 is 1.1 µg/mL.
